Assay results: patent US20230365705A1 (DYNAMICURE BIOTECHNOLOGY, published 2023)
Residue numbers refer to the chain shown, from its start. Where two headings read alike, the source gives them in different places.

What was measured:
[1] = target: T1, Human CD93 recombinant protein (Sino Biological Inc, Catalog #12589-H08H) (human, UniProt Q9NPY3 22-580); experiment: BLI (Octet QKe), biotinylated human CD93 on streptavidin biosensors
T1 construct: Biotinylated (EZ-LINK NHS-PEG4 biotin) in the BLI assays; also called hCD93; His-tagged human CD93
T1 sequence (looked up): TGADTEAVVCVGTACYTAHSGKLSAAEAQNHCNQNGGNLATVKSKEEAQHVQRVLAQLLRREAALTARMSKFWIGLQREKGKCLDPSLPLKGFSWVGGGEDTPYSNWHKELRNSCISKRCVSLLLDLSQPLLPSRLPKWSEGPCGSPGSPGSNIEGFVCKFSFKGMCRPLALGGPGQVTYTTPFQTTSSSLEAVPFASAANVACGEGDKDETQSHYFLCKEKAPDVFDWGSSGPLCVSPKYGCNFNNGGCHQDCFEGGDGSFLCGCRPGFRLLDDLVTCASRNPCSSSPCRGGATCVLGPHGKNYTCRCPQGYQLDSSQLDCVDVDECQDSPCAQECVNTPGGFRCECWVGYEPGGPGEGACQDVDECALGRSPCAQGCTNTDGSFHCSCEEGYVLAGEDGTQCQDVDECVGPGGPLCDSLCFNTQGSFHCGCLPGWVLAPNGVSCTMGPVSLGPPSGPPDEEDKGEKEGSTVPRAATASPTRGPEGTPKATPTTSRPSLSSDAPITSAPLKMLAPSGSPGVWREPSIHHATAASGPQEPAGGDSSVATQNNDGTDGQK
Protocol: The binding affinity of anti-CD93 antibodies were determined with bio-layer interferometry using Octet QKe (Fortebio). Human CD93 recombinant protein (Sino Biological Inc, Catalog #12589-H08H) or cynomolgus CD93 protein (made in-house) were biotinylated using EZ-LINK NHS-PEG4 biotin (Thermo Fisher Scientific). Streptavidin biosensors (Fortebio) were used to load biotinylated CD93 protein (300 seconds in 5 μg/ml). The baseline was stabilized for 60 seconds in 1× kinetics buffer (Fortebio) before anti-CD93 antibodies at a serial dilution were allowed to associate for 300 seconds with captured protein. Then the sensors were dissociated in 1× kinetics buffer for 600 seconds.

[2] = target: T2, Human CD93 on cells (human CD93 expressing CHO cells; HUVEC, U937 and KG1a cells) (human, UniProt Q9NPY3 22-652); experiment: flow cytometry, CD93 expressing CHO cells, antibody 10 ug/ml, FITC-A
T2 construct: whole, on cells; also called hCD93 expressing CHO cells; hCD93 CHO cells
T2 sequence (looked up): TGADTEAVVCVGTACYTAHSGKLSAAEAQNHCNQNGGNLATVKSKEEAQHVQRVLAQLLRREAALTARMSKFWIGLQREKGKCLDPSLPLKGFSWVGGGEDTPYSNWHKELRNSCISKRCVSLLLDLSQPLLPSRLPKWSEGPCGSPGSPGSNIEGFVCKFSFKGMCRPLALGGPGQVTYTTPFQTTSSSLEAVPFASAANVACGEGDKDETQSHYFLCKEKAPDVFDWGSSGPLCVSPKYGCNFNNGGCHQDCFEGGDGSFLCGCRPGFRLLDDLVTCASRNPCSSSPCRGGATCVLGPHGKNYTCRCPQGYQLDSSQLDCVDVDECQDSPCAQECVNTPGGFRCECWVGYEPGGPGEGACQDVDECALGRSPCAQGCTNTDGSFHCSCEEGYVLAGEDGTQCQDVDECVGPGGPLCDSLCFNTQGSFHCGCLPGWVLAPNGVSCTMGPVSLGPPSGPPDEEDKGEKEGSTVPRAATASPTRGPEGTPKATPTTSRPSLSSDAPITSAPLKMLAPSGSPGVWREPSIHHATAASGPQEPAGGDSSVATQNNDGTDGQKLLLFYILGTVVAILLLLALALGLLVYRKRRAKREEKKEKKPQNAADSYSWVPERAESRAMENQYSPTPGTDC
Protocol: Human CD93 expressing CHO cells were detached by incubation with TrypLE reagents (Thermos Fisher), which preserves the integrity of CD93 on the cell surface. […] After washing with FACS buffer twice, the samples were acquired in NovoCyte Flow Cytometer and analyzed by NovoExpress software.

[3] = target: T2, Human CD93 on cells (human CD93 …); experiment: flow cytometry, CHO cells overexpressing human CD93, antibody 0.01ug, mIgG1 as control, APC-A
[4] = target: T2, Human CD93 on cells (human CD93 …); experiment: as above; remark: listed apart in the source

B1: 16G9 (antibody, V domains shown)
VH: EVQLQQSGPELVKPGASVKMSCKASGYTFTDYYMNWVKQSHGKSLEWIGRVNPNNGGKTYNQKFKGKATLTVDKSLSTAYMQLNSLTSEDSAVYYCARWRLRPVDYGMDYWGQGTSVTVSS
VL: DIVLTQSPASLAVSLGQRATISCRASQSVSTSSYSYMHWYQQKPGQPPKLLIKYASNLESGVPARFSGSGSGTDFTLNIHPVEEEDTATYYCQHSWEIPFTFGSGTKLEIK
notes: Mouse hybridoma monoclonal antibody
[1]
  binding result: binds
[2]
  binding result: binds

B2: 19B5 (antibody, V domains shown)
VH: DVNLVESGGGLVKLGGSLKLSCAASGFTFSNYYMSWVRQSPEKRLEWVATISNNGDSTYYLDTVKGRFTISRDSAENTLYLQMSSLISEDTAVYYCTRVGTGFTYWGQGTLVTVSA
VL: DIVLTQSPATLSVTPGDSVSLSCRASQSINNYLHWYQQRSHESPRLLIKFASQSISDIPSRFSGSGSGTDFTLSINSIETEDFGMYFCQQSNSWPLTFGAGTKLELK
notes: as for B1
[1]
  binding result: binds
[2]
  binding result: binds

B3: 5H9 (antibody, IgG2a, V domains shown)
VH: QVQLQQSGPDLVKPGASVKISCKASGYAFSTYWMNWVKQRPGKGLEWIGRIFPGDGDANYNGKFKGKATLTADKSSSTAYMQLSSLTSEDSAVYFCTRTGAAYDFDPFPYWGQGTLVTVSA
VL: DIVMTQAAFSNPVTLGTSASISCSSSKSLLHSNGVTYLYWYLQRPGQSPQLLIYRMSNLASGVPDRFSGSGSGTDFTLRISRVEAEDVGIYYCAQMLERPFTFGSGTKLEIK
notes: also called 5H9 mIgG2a
[1]
  binding result: binds
[2]
  binding result: binds

B4: 17A7 (antibody, V domains shown)
VH: B3 VH with D10E, A24G, A58T, N59D, N61D, S77N, T97A, D104E
VL: B3 VL with S26T, N33S, V35I, I90V
notes: as for B1
[1]
  binding result: binds
[2]
  binding result: binds

B5: 16B6 (antibody, V domains shown)
VH: QVQLQQSGPELVKPGASVKISCKASGYAFSRSWMNWVKQRPGKGLEWIGWIYPGDGDTNYNGKFKGKATLTADKSSSTAYMQLSSLTSEDSAAYFCARSATLPYWYFDVWGAGTTVTVSS
VL: DIKMTQSPSSMYASLGERVTITCKASQDIKSYLSWYQQKPWKSPKTLIYYATNLADGVPSRFSGSGSGQDYSLTISSLGSDDTATYYCLQHVESPWTFGGGTKLEIK
notes: as for B1
[1]
  binding result: binds
[2]
  binding result: binds

B6: 12H4 (antibody, V domains shown)
VH: EVQLQQSGPELVKPGASVKVSCKASGYTFTDYYIHWVKQRPGQGLEWIGEIYPGSDDAYYNEKFKGKATLTADKSSSTAYMQLSSLTSEDSAVYFCTRETTATAYWGQGTLVTVSA
VL: QIVLTQSPAIMSASPGEKVTITCSASSSVSLIYWFQQKPGTSPKLWIYSTSNLASGVPARFSGSGSGTSYSLTISRMEAEDAATYYCQQRSGYPPTFGGGTKLEIK
notes: as for B1
[1]
  binding result: binds
[2]
  binding result: binds

B7: 19E12 (antibody, V domains shown)
VH: QVQLQQSGAELVRPGASVKLSCKASGYTFTDYEMHWVRQTPVHGLEWIGGIDPETGGTAYNQKFKGKATLTADKSSSTAYMELRSLTSEDSAVYYCTRGAWFAYWGQGTLVTVSA
VL: QAVVTQESALTTSPGETVTLTCRSSTGAVTTSNSANWVQEKPDHLFTGLIGGTNNRAPGVPARFSGSLIGDKAALTITGAQTEDEAIYFCALWYNNHFVFGGGTKLTVL
notes: as for B1
[1]
  binding result: binds
[2]
  binding result: binds

B8: humanized 17B10 H1L1 (antibody, mouse IgG1, V domains shown)
VH: QVQLVQSGAEVKKPGSSVKVSCKASGYAFSSYWLNWVRQAPGQGLEWFGRIYPGDGDTDYNGKFKGRVTLTADKSTSTAYMELSSLRSEDTAVYFCVRGDGYWAMDYWGQGTTVTVSS
VL: DIVMTQSPLSLPVTPGEPASISCRFSQSLLHSNGITYLYWYLQKPGQSPQLLIYQMSNLASGVPDRFSGSGSGTDFTLKISRVEAEDVGVYYCAQNLELPWTFGGGTKLEIK
notes: Chimeric Fc: human CH1, mouse IgG1 CH2 and CH3
[3]
  M2 gate, % of cells: 99%

B9: humanized 17B10 H3L1 (antibody, mouse IgG1, V domains shown)
VH: QVQLVQSGPEVKKPGESLKISCKASGYAFSSYWLNWVRQMPGKGLEWMGRIYPGDGDTDYNGKFKGQVTISADKSSGTAYLQLSSLKASDTAVYFCVRGDGYWAMDYWGQGTLVTVSS
VL: B8 VL
notes: as for B8
[3]
  M2 gate, % of cells: 99.5%

B10: humanized 17B10 H1L3 (antibody, mouse IgG1, V domains shown)
VH: B8 VH
VL: DIVMTQSPDSLAVSLGERATINCRFSKSLLHSNGITYLYWYQQKPGQPPKLLIYQMSNLASGVPDRFSGSGSGTDFTLTISSLQAEDVAVYYCAQNLELPWTFGGGTKLEIK
notes: as for B8
[4]
  M2 gate, % of cells: 99.2%

B11: humanized 17B10 H1L2 (antibody, mouse IgG1, V domains shown)
VH: B8 VH
VL: B8 VL with S7T, Q55T
notes: as for B8
[3]
  M2 gate, % of cells: 92.1%

B12: humanized 17B10 H2L1 (antibody, mouse IgG1, V domains shown)
VH: QVQLVQSGAEVVKSGASVKVSCKASGYAFSSYWLNWVRQAPGQGLEWFGRIYPGDGDTDYNGKFKGRVTLIRDTSTSTVYMELTSLTSEDTAVYYCVRGDGYWAMDYWGQGTLVTVSS
VL: B8 VL
notes: as for B8
[4]
  M2 gate, % of cells: 98.2%

B13: humanized 17B10 H2L3 (antibody, mouse IgG1, V domains shown)
VH: B12 VH
VL: B10 VL
notes: as for B8
[3]
  M2 gate, % of cells: 99.2%

B14: 17E6 (antibody, V domains shown)
VH: EVQLQQSGPELVKPGASVKMSCKASGYTFTSYVIHWVKQKPGQGLEWIGYINPYSDYTQYNEKFKGKATLTSDKSSSTAYMELSSLTSEDSAVYSCARRADGNPYAMDYWGQGTSVTVSS
VL: DIVMTQSHKFMSTSVGDRVSTTCKASQDVSTAVVWYQQKPGQSPKLLIYSASYRYTGVPDRFTGSGSGTDFTFTITSVQAEDLAVYYCQQHYSTPFTFGSGTKLEIK
notes: as for B1
[1]
  binding result: binds
[2]
  binding result: binds

B15: 20C7 (antibody, V domains shown)
VH: B14 VH with K13N, S31A, I34M, N52F, S55N, Y57G, Q59E, S95Y, A100T, A106T
VL: B14 VL with T21I, V34A, Y49H, S65R, T76S
notes: as for B1
[1]
  binding result: binds
[2]
  binding result: binds
